Assay [1] has as its target recombinant human TGF-β1 (human) (UniProt P01137). Briefly: ELISA, TGF-β1 coated on plate, anti-human IgG Fc-HRP detection. A general note: An ELISA detects its analyte on a solid surface through an enzyme-linked reagent.
The target in assay [2] is recombinant human TGF-β3 (human) (UniProt P10600). Briefly: ELISA, TGF-β3 coated on plate, anti-human IgG Fc-HRP detection.
Chain of UniProt P10600 (P10600 301-412 limits assumed): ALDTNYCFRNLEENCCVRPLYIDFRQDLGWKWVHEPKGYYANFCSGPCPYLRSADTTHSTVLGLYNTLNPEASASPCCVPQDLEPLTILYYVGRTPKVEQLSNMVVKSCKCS

Chain of UniProt P01137 (P01137 279-390 limits assumed): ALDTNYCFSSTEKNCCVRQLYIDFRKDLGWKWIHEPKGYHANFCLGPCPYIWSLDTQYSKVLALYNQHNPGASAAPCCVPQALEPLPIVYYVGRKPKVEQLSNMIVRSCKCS

Turning to M7824, the EC50 in assay [1] is 2.08 nM; in assay [2] it was 3.32 nM.

What is called EC50 is the midpoint of the concentration-response curve.

Values taken from patent US20260242454A1.
